Experiment [1] has as its system Human Rhinovirus A16 (clinical strain: QCHRV.16). In words: Apical Rhinovirus replication by quantitative RT-PCR (Example 6). In kind it is cell-based. To be noted: Example 6, 24 hours pi (D1).
Experiment [2] concerns herpes simplex virus (topical application) and hepatitis C infection. Conditions: before versus after contact with the virus; cited from earlier work.
The conditions of experiment [3]: in some studies; cited from earlier work.

Consider three molecules from US12594285B2, “Compositions and methods for protecting against airborne pathogens and irritants” (APPLIED BIOLOGICAL LABORATORIES, INC., priority 2016, dated 2026).

B1: soluble ICAM-1: soluble form of intercellular adhesion molecule 1, sole antiviral agent of formulations R3 and R4 (protein, UniProt P05362 28-480, looked up)
extracellular domain: QTSVSPSKVILPRGGSVLVTCSTSCDQPKLLGIETPLPKKELLLPGNNRKVYELSNVQEDSQPMCYSNCPDGQSTAKTFLTVYWTPERVELAPLPSWQPVGKNLTLRCQVEGGAPRANLTVVLLRGEKELKREPAVGEPAEVTTTVLVRRDHHGANFSCRTELDLRPQGLELFENTSAPYQLQTFVLPATPPQLVSPRVLEVDTQGTVVCSLDGLFPVSEAQVHLALGDQRLNPTVTYGNDSFSAKASVSVTAEDEGTQRLTCAVILGNQSQETLQTVTIYSFPAPNVILTKPEVSEGTEVTVKCEAHPRAKVTLNGVPAQPLGPRAQLLLKATPEDNGRSFSCSATLEVAGQLIHKNQTRELRVLYGPRLDERDCPGNWTWPENSQQTPMCQAWGNPLPELKCLKDGTFPLPIGESVTVTRDLEGTYLCRARSTQGEVTRKVTVNVLSPRYE
modifications: extracellular domain
notes: soluble form of intercellular adhesion molecule 1, sole antiviral agent of formulations R3 and R4
As for B1, the “replication of HRV-A16 virus at D1” value in experiment [1] is listed as “inhibited replication”.

B2: lactoferrin: glycoprotein of approximately 703 amino acids and approximately 80 kD in exocrine secretions (protein, UniProt P02788 20-710, looked up)
Lactotransferrin: GRRRSVQWCAVSQPEATKCFQWQRNMRKVRGPPVSCIKRDSPIQCIQAIAENRADAVTLDGGFIYEAGLAPYKLRPVAAEVYGTERQPRTHYYAVAVVKKGGSFQLNELQGLKSCHTGLRRTAGWNVPIGTLRPFLNWTGPPEPIEAAVARFFSASCVPGADKGQFPNLCRLCAGTGENKCAFSSQEPYFSYSGAFKCLRDGAGDVAFIRESTVFEDLSDEAERDEYELLCPDNTRKPVDKFKDCHLARVPSHAVVARSVNGKEDAIWNLLRQAQEKFGKDKSPKFQLFGSPSGQKDLLFKDSAIGFSRVPPRIDSGLYLGSGYFTAIQNLRKSEEEVAARRARVVWCAVGEQELRKCNQWSGLSEGSVTCSSASTTEDCIALVLKGEADAMSLDGGYVYTAGKCGLVPVLAENYKSQQSSDPDPNCVDRPVEGYLAVAVVRRSDTSLTWNSVKGKKSCHTAVDRTAGWNIPMGLLFNQTGSCKFDEYFSQSCAPGSDPRSNLCALCIGDEQGENKCVPNSNERYYGYTGAFRCLAENAGDVAFVKDVTVLQNTDGNNNEAWAKDLKLADFALLCLDGKRKPVTEARSCHLAMAPNHAVVSRMDKVERLKQVLLHQQAKFGRNGSDCPDKFCLFQSETKNLLFNDNTECLARLHGKTTYEKYLGPQYVAGITNLKKCSTSPLLEACEFLRK
Regarding B2, the “protection against viral infection” value in experiment [2] is “protective before contact with the virus but not after”.

B3: bovine lactoferrin: bovine form of the glycoprotein lactoferrin, 69% homology to human lactoferrin (protein, UniProt P24627 20-708, looked up)
Lactotransferrin: APRKNVRWCTISQPEWFKCRRWQWRMKKLGAPSITCVRRAFALECIRAIAEKKADAVTLDGGMVFEAGRDPYKLRPVAAEIYGTKESPQTHYYAVAVVKKGSNFQLDQLQGRKSCHTGLGRSAGWIIPMGILRPYLSWTESLEPLQGAVAKFFSASCVPCIDRQAYPNLCQLCKGEGENQCACSSREPYFGYSGAFKCLQDGAGDVAFVKETTVFENLPEKADRDQYELLCLNNSRAPVDAFKECHLAQVPSHAVVARSVDGKEDLIWKLLSKAQEKFGKNKSRSFQLFGSPPGQRDLLFKDSALGFLRIPSKVDSALYLGSRYLTTLKNLRETAEEVKARYTRVVWCAVGPEEQKKCQQWSQQSGQNVTCATASTTDDCIVLVLKGEADALNLDGGYIYTAGKCGLVPVLAENRKSSKHSSLDCVLRPTEGYLAVAVVKKANEGLTWNSLKDKKSCHTAVDRTAGWNIPMGLIVNQTGSCAFDEFFSQSCAPGADPKSRLCALCAGDDQGLDKCVPNSKEKYYGYTGAFRCLAEDVGDVAFVKNDTVWENTNGESTADWAKNLNREDFRLLCLDGTRKPVTEAQSCHLAVAPNHAVVSRSDRAAHVKQVLLHQQALFGKNGKNCPDKFCLFKSETKNLLFNDNTECLAKLGGRPTYEEYLGTEYVTAIANLKKCSTSPLLEACAFLTR
Regarding B3, in experiment [3], the “concentration required for an antimicrobial effect relative to human lactoferrin” value was 1/10.
